Laboratory results: the supplement of paper PMC10065799, “High-throughput profiling of sequence recognition by tyrosine kinases and SH2 domains using bacterial peptide display” (eLife, 2023)

Assays:
[1] = target: Grb2 SH2 (UniProt P62993); experiment: SH2 binding enrichment of the phosphorylated peptide, bacterial display (enrichment ratio); higher = better substrate or ligand; peptides without Tyr show the background
[2] = target: SHP2-C SH2; experiment: as above
[3] = target: c-Src SH2; experiment: as above
[4] = target: FGFR1 (UniProt P11362); experiment: phosphorylation enrichment, bacterial display (enrichment ratio); higher = better substrate or ligand; peptides without Tyr show the background
[5] = target: Fyn (UniProt P06241); experiment: as above
[6] = target: MERTK (UniProt Q12866); experiment: as above
[7] = target: Hck (UniProt P08631); experiment: as above
[8] = tested on: c-Abl (mouse); experiment: as above
[9] = tested on: AncSZ; experiment: as above
[10] = tested on: Fer (mouse); experiment: as above
[11] = tested on: c-Src; experiment: as above
[12] = target: Jak2 (UniProt O60674); experiment: as above
[13] = target: EPHB2 (UniProt P29323); experiment: as above
[14] = target: Fes (UniProt P07332); experiment: as above
[15] = target: FGFR3 (UniProt P22607); experiment: as above
[16] = target: EPHB1 (UniProt P54762); experiment: as above
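Wherever SH2 binding enrichment of the phosphorylated peptide, bacterial display is given: peptide library displayed on the E. coli surface as eCPX fusions, selected cells deep-sequenced, score is each peptide's frequency after selection divided by its frequency in the input.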
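Wherever phosphorylation enrichment, bacterial display is given: 11-residue human phosphosite peptides and single-mutation variants displayed on the E. coli surface, counted by deep sequencing, each peptide's frequency after selection divided by its frequency in the unselected input library; frequency after pTyr selection over input frequency; kinase dosed for 20-30% of maximal phosphorylation in three min.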

Chain of MERTK (Q12866 whole entry, looked up): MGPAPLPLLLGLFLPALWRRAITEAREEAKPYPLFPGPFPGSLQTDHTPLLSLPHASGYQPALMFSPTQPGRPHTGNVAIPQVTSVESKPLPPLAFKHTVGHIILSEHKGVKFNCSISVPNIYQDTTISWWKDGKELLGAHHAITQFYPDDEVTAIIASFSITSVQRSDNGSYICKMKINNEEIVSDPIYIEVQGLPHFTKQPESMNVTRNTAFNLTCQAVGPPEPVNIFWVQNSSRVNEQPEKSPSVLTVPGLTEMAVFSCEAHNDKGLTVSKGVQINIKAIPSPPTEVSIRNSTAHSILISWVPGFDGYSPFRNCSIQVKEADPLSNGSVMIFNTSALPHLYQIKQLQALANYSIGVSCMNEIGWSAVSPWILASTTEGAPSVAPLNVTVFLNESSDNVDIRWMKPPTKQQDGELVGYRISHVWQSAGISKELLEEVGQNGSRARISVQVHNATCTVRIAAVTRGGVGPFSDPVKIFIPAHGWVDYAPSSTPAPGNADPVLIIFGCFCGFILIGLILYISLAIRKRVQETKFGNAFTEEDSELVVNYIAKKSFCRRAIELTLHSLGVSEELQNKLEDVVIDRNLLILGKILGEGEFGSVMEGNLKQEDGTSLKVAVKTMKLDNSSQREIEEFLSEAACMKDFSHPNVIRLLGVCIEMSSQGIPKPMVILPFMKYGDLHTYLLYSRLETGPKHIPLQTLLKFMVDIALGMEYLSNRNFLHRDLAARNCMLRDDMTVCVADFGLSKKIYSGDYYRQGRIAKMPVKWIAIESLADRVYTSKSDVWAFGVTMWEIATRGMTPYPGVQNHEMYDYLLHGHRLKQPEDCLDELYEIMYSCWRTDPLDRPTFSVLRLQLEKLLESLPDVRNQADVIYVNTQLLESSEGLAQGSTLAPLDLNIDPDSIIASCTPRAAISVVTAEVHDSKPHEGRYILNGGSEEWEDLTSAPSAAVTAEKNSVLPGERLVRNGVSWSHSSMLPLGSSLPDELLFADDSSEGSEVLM
Chain of EPHB2 (P29323 whole entry, looked up): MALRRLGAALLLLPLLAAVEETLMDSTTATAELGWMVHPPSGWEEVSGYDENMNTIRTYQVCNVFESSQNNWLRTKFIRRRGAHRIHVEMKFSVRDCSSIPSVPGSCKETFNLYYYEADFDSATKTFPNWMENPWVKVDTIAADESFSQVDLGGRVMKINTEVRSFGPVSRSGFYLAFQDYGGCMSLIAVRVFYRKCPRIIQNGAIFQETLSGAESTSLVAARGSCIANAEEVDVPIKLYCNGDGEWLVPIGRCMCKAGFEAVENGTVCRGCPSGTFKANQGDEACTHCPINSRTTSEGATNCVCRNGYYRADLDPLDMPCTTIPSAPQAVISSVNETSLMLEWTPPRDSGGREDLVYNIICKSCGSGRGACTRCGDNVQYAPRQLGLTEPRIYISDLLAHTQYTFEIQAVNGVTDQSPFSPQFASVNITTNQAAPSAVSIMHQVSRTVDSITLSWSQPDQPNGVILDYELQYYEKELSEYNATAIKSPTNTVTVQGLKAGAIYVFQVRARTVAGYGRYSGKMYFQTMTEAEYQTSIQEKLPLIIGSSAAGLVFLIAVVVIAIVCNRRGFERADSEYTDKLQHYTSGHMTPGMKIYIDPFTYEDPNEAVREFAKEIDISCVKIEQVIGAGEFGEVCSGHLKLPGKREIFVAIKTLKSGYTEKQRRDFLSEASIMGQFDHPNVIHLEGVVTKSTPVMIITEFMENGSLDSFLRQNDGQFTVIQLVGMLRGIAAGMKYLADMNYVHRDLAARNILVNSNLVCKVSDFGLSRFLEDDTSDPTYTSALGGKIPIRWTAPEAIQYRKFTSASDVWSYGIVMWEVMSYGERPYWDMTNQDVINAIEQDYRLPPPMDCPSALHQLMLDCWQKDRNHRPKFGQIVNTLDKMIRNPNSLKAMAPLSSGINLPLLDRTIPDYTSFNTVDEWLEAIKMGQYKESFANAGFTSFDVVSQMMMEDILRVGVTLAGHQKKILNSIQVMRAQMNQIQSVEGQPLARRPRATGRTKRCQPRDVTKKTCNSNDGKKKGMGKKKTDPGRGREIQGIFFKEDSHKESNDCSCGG
Chain of Fyn (P06241 whole entry, looked up): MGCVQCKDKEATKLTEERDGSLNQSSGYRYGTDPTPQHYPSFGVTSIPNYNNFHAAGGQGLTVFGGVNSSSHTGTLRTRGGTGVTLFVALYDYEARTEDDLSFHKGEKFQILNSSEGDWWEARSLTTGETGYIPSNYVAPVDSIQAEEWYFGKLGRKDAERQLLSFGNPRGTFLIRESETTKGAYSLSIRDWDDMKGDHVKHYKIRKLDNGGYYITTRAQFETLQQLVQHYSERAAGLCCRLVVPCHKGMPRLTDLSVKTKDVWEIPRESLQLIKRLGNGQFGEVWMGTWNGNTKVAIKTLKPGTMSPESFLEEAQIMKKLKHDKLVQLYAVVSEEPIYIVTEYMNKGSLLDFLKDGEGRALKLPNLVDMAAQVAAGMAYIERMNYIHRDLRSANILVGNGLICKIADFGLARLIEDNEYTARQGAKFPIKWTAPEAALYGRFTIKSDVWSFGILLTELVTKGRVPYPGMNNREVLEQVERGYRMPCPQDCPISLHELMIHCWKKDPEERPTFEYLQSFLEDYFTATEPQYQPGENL
Chain of Hck (P08631 whole entry, looked up): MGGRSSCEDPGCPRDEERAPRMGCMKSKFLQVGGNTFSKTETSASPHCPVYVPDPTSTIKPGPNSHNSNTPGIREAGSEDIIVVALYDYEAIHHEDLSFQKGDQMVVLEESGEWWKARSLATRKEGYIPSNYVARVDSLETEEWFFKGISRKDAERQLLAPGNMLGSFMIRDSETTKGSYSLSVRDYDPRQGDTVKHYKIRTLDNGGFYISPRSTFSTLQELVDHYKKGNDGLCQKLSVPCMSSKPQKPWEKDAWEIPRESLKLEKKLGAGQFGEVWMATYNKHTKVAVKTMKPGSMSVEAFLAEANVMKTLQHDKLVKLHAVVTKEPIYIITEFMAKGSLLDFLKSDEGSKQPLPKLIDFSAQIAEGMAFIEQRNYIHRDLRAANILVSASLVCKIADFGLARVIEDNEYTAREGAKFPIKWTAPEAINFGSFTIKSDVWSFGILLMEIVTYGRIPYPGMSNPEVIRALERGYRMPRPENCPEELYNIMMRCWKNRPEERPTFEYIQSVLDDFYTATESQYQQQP
Chain of FGFR1 (P11362 whole entry, looked up): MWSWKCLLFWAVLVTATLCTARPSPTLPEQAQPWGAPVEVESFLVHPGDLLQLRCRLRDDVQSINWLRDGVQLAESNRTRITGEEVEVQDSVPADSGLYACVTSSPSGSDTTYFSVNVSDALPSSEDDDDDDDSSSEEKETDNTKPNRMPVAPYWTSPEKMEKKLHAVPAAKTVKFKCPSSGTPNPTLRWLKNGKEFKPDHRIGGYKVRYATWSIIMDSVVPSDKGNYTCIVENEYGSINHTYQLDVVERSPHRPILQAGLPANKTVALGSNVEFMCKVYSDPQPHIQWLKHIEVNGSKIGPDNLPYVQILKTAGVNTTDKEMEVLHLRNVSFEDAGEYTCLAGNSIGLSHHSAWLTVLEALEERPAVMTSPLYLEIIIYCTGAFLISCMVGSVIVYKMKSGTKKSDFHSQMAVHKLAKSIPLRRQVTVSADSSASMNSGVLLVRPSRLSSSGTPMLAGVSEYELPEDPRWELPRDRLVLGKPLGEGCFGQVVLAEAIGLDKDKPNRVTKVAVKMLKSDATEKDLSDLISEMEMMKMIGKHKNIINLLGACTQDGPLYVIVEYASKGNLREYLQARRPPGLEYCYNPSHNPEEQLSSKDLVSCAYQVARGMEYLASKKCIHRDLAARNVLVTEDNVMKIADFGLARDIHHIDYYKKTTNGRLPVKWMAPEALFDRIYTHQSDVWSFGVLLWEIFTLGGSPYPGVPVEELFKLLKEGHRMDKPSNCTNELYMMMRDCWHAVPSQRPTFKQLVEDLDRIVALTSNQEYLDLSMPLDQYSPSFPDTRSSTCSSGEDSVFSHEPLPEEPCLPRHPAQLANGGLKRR
Chain of Jak2 (O60674 whole entry, looked up): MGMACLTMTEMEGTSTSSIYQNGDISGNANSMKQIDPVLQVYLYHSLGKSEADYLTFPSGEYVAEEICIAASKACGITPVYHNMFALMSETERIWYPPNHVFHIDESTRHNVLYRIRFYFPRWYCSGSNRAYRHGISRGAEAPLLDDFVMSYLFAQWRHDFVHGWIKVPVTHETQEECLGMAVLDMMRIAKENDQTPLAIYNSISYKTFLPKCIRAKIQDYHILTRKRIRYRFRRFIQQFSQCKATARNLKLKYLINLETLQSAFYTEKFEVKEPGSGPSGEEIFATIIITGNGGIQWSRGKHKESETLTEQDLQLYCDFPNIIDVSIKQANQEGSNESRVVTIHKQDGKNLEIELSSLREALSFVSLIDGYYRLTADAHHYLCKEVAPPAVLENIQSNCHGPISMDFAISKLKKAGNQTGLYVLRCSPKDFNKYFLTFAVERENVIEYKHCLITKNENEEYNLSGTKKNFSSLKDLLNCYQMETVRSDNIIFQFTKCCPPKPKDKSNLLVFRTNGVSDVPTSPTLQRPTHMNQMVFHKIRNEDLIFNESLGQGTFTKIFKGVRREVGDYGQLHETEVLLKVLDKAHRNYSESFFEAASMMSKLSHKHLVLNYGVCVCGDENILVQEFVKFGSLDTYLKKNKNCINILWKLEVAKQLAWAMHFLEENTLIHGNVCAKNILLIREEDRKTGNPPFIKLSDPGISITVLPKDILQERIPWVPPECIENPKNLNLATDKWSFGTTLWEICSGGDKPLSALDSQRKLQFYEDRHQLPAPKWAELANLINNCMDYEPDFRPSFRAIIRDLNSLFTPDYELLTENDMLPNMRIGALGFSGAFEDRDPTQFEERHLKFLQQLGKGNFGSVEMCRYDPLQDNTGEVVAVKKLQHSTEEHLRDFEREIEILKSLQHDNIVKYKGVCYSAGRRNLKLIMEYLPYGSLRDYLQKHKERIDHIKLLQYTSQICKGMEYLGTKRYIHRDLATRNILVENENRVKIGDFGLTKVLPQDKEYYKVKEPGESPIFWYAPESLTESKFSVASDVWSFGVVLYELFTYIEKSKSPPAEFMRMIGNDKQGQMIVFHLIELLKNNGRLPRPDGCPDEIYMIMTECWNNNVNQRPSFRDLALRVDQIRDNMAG

Sequence	SH2 binding enrichment [1]	SH2 binding enrichment [2]	SH2 binding enrichment [3]	phosphorylation enrichment [4]	phosphorylation enrichment [5]	phosphorylation enrichment [6]	phosphorylation enrichment [7]	phosphorylation enrichment [8]	phosphorylation enrichment [9]	phosphorylation enrichment [10]	phosphorylation enrichment [11]	phosphorylation enrichment [12]	phosphorylation enrichment [13]	phosphorylation enrichment [14]	phosphorylation enrichment [15]	phosphorylation enrichment [16]
ALAAPYVLFPS [CEFIP_Y1332_G1337S_YF]	0.968	0.816	4.34	2.56	0.578	2.01	0.647	0.682	0.675	0.504	5	1.63	0.502	0.822	1.83	0.76
RKLVDYDSARH [BIN1_Y150]	1.03	0.42	0.387	0.571	0.449	0.57	0.418	0.916	0.491	0.565	0.649	0.792	0.481	0.968	0.668	0.498
DEYLEYRRIVG [FAM221A_Y20]	1.03	0.762	0.547	1.07	1.03	0.38	1.06	0.859	1.14	0.51	1.07	0.91	0.615	0.881	0.968	1.12
ALERPYTSKHS [NANS_Y71]	0.866	0.529	0.6	0.381	0.406	0.442	0.463	0.615	0.531	0.353	0.461	0.564	0.459	0.535	0.398	0.372
KSVITYSPTTG [ITGB3BP_Y32]	0.91	0.849	0.507	0.37	0.38	0.403	0.353	0.447	0.49	0.401	0.462	0.586	0.49	0.592	0.464	0.325
MSLRSYGSREG [APC_Y96]	0.763	0.409	0.453	0.373	0.398	0.418	0.387	0.491	0.723	0.413	0.458	0.451	0.42	0.586	0.414	0.416
AAILGYCRGEA [XPC_Y669]	0.821	0.683	0.57	0.541	0.438	0.413	0.467	0.718	0.789	0.419	0.372	0.786	0.45	1.02	0.556	0.567
EYKKKYSDADI [CKAP5_Y1860]	0.819	0.614	0.435	0.404	0.442	0.383	0.367	0.637	0.709	0.399	0.371	0.671	0.474	0.819	0.475	0.393
PDGVEYLKNNP [GRIN3A_Y831_D835N]	0.982	0.849	0.348	0.503	0.543	0.546	0.664	0.748	1.21	0.499	0.539	1.31	0.452	1.05	0.769	0.527
LYEDRYLLGPS [ASS1_Y87_T91P]	0.69	0.662	0.626	1.2	2.3	0.899	4.13	0.683	1.2	5.42	1.5	0.812	1.4	1.67	1.16	3.52
IVAREYYSKAD [CAMK2B_Y107_E110K]	0.75	0.749	2.01	0.43	0.423	0.425	0.507	0.639	0.768	0.405	0.525	0.697	0.602	0.85	0.504	0.467
WFKKFYDANFD [MAPRE2_Y158_YF]	1.06	0.639	0.512	0.378	0.37	0.399	0.421	0.537	0.998	0.373	0.368	0.85	0.374	1.28	0.6	0.501
KQLYAYKMLMA [TMC2_Y209]	1.32	1.4	0.842	0.515	0.39	0.368	0.458	0.57	0.629	0.384	0.383	0.669	0.445	0.72	0.496	0.62
LARHMYDKEYY [MET_Y1230_D1228H]	1.25	1.43	1.15	0.799	0.638	0.597	0.825	0.687	1.17	0.671	0.73	0.883	0.811	0.933	0.813	0.693
EVKRLYGSVCD [TC2N_Y154]	0.714	0.744	0.56	0.475	0.695	0.515	0.61	0.849	0.866	0.543	0.656	1.06	0.585	1.16	0.703	0.529
ILGRTYFVNHE [NEDD4_Y627_YF]	0.865	0.656	0.463	0.43	0.392	0.355	0.379	0.735	0.83	0.429	0.467	0.758	0.398	0.854	0.605	0.526
TFRPPYFHRNC [HGD_Y333_YF]	1.1	1.41	1.09	0.617	0.473	1.03	0.661	0.635	0.733	0.626	0.454	0.717	0.946	0.869	0.771	0.522

Sequence	SH2 binding enrichment [1]	SH2 binding enrichment [2]	SH2 binding enrichment [3]	phosphorylation enrichment [4]	phosphorylation enrichment [5]	phosphorylation enrichment [6]	phosphorylation enrichment [7]	phosphorylation enrichment [8]	phosphorylation enrichment [9]	phosphorylation enrichment [10]	phosphorylation enrichment [11]	phosphorylation enrichment [12]	phosphorylation enrichment [13]	phosphorylation enrichment [14]	phosphorylation enrichment [15]	phosphorylation enrichment [16]
CERFSYFGMKA [SLC15A2_Y60_YF]	1.02	0.577	0.704	1.24	0.529	0.544	0.557	0.94	1.13	0.467	0.575	2.66	0.745	1.26	0.938	0.571
RRIEKYVDQGK [IRAK3_Y61_H57R]	0.72	0.333	0.535	0.736	0.516	0.571	0.445	0.56	0.88	0.326	0.483	0.419	0.322	0.662	0.416	0.615
FFRDGCMPRQF [GSS_Y270_Y270C_YF]	0.849	0.496	0.506	0.416	0.464	0.386	0.497	0.717	0.863	0.489	0.463	0.949	0.518	1.2	0.606	0.533
GASWRYGSGVS [NEU1_Y242]	0.728	0.721	0.461	0.531	0.479	0.413	0.505	0.506	0.637	0.428	0.42	0.566	0.432	0.782	0.617	0.512
RLLRGYNQSAF [HLA-C_Y137_D138N_YF]	1.14	0.705	0.976	0.665	0.458	0.56	0.402	0.316	0.54	0.268	0.424	0.476	0.417	0.804	0.547	0.503
RHFTTYDTNGR [CLCA1_Y665_Y661H]	0.716	0.642	0.494	0.808	1.01	0.707	0.835	0.618	0.93	0.594	0.876	0.844	0.97	0.938	0.755	0.609
SKGFAYVHFDS [PABPC5_Y149_YF]	1.02	1.29	1.96	0.393	0.381	0.378	0.378	0.681	0.814	0.408	0.314	0.832	0.466	0.871	0.584	0.477
VVLGSYDRLRV [IFT172_Y260]	0.724	0.863	1.17	0.45	0.404	0.341	1.11	0.452	0.584	0.45	0.405	0.546	0.451	0.75	0.582	0.442
EEKKKYYDTKI [CASP5_Y103]	0.698	0.669	0.432	0.468	0.479	0.366	0.4	0.618	0.818	0.465	0.34	0.875	0.421	0.853	0.515	0.442
PFTRNYFVRAV [CYBA_Y87_YF]	0.868	0.327	0.519	0.788	0.533	0.544	0.595	0.868	1.04	0.408	0.419	0.93	0.708	0.967	0.739	0.413
KILGRYFETGS [PAX2_Y72_YF]	0.9	0.845	0.438	0.459	0.408	0.375	0.397	0.563	0.575	0.464	0.413	0.759	0.467	0.656	0.496	0.414
AFHGEYIPTVF [RAC2_Y32_P29H]	0.91	0.59	0.682	0.602	0.445	0.432	0.412	0.575	0.859	0.391	0.419	0.571	0.447	0.809	0.635	0.554
QMVGMYASFYM [AVPR2_Y124_S127F]	0.784	0.842	0.538	0.45	7.85	4.41	5.46	3.61	1.35	3.65	6.92	1.79	1.92	1.65	1	2.49
SAAAIYTVRHP [PMP22_Y117]	0.9	0.891	0.443	0.487	5.3	1.92	7.82	0.67	0.615	0.474	6.41	0.506	0.516	0.601	0.43	0.54
WRVISYHVVVW [ATP13A2_Y50_G49S]	1.08	0.994	0.619	0.554	0.453	0.434	0.544	1.03	1.2	0.547	0.63	1.26	0.61	1.47	0.826	0.582
GMRHGHGVRQS [JPH2_Y141_Y141H]	1.27	1.31	1	0.471	0.419	0.462	0.495	1.28	0.646	0.529	0.529	0.975	0.45	0.803	0.696	0.775
